Patent US20220010021A1 (Sanofi, published 2022)
Numbering of substitutions follows the chain as printed.

B1: 16H7 light chain variant D49S (antibody, IgG4, V domains shown)
VH: not shown
VL: SYVLTQPPSVSVAPGQTARITCGGNNIGSESVHWYQQKPGQAPVLVVYSDSDRPSGIPERFSGSNSGNTATLTISRVEAGDEADYYCQVWDGNSDHVVFGGGTKLTVLG
notes: IgG4 backbone
B2: 16H7 light chain variant D49W (antibody, IgG4, V domains shown)
VH: not shown
VL: B1 VL with S49W
notes: IgG4 backbone
B3: 16H7 light chain variant D50A (antibody, IgG4, V domains shown)
VH: not shown
VL: B1 VL with S49D, D50A
notes: IgG4 backbone
B4: 16H7 light chain variant D50C (antibody, IgG4, V domains shown)
VH: not shown
VL: B1 VL with S49D, D50C
notes: IgG4 backbone
B5: 16H7 light chain variant D50E (antibody, IgG4, V domains shown)
VH: not shown
VL: B1 VL with S49D, D50E
notes: IgG4 backbone
B6: 16H7 light chain variant D50F (antibody, IgG4, V domains shown)
VH: not shown
VL: B1 VL with S49D, D50F
notes: IgG4 backbone
B7: 16H7 light chain variant D50G (antibody, IgG4, V domains shown)
VH: not shown
VL: B1 VL with S49D, D50G
notes: IgG4 backbone
B8: 16H7 light chain variant D50H (antibody, IgG4, V domains shown)
VH: not shown
VL: B1 VL with S49D, D50H
notes: IgG4 backbone
B9: 16H7 light chain variant D50I (antibody, IgG4, V domains shown)
VH: not shown
VL: B1 VL with S49D, D50I
notes: IgG4 backbone
B10: 16H7 light chain variant D50L (antibody, IgG4, V domains shown)
VH: not shown
VL: B1 VL with S49D, D50L
notes: IgG4 backbone
B11: 16H7 light chain variant D50M (antibody, IgG4, V domains shown)
VH: not shown
VL: B1 VL with S49D, D50M
notes: IgG4 backbone
B12: 16H7 light chain variant D50Q (antibody, IgG4, V domains shown)
VH: not shown
VL: B1 VL with S49D, D50Q
notes: IgG4 backbone
B13: 16H7 light chain variant D50R (antibody, IgG4, V domains shown)
VH: not shown
VL: B1 VL with S49D, D50R
notes: IgG4 backbone
B14: 16H7 light chain variant D50S (antibody, IgG4, V domains shown)
VH: not shown
VL: B1 VL with S49D, D50S
notes: IgG4 backbone
B15: 16H7 light chain variant D50T (antibody, IgG4, V domains shown)
VH: not shown
VL: B1 VL with S49D, D50T
notes: IgG4 backbone
B16: 16H7 light chain variant D50V (antibody, IgG4, V domains shown)
VH: not shown
VL: B1 VL with S49D, D50V
notes: IgG4 backbone
B17: 16H7 light chain variant D50W (antibody, IgG4, V domains shown)
VH: not shown
VL: B1 VL with S49D, D50W
notes: IgG4 backbone
B18: 16H7 light chain variant D50Y (antibody, IgG4, V domains shown)
VH: not shown
VL: B1 VL with S49D, D50Y
notes: IgG4 backbone
B19: 16H7 light chain variant D95A (antibody, IgG4, V domains shown)
VH: not shown
VL: B1 VL with S49D, D95A
notes: IgG4 backbone
B20: 16H7 light chain variant D95H (antibody, IgG4, V domains shown)
VH: not shown
VL: B1 VL with S49D, D95H
notes: IgG4 backbone
B21: 16H7 light chain variant D95I (antibody, IgG4, V domains shown)
VH: not shown
VL: B1 VL with S49D, D95I
notes: IgG4 backbone
B22: 16H7 light chain variant D95M (antibody, IgG4, V domains shown)
VH: not shown
VL: B1 VL with S49D, D95M
notes: IgG4 backbone
B23: 16H7 light chain variant D95Y (antibody, IgG4, V domains shown)
VH: not shown
VL: B1 VL with S49D, D95Y
notes: IgG4 backbone
B24: 16H7 light chain variant H33A (antibody, IgG4, V domains shown)
VH: not shown
VL: B1 VL with H33A, S49D
notes: IgG4 backbone
B25: 16H7 light chain variant H33C (antibody, IgG4, V domains shown)
VH: not shown
VL: B1 VL with H33C, S49D
notes: IgG4 backbone
B26: 16H7 light chain variant H33D (antibody, IgG4, V domains shown)
VH: not shown
VL: B1 VL with H33D, S49D
notes: IgG4 backbone
B27: 16H7 light chain variant H33E (antibody, IgG4, V domains shown)
VH: not shown
VL: B1 VL with H33E, S49D
notes: IgG4 backbone
B28: 16H7 light chain variant H33F (antibody, IgG4, V domains shown)
VH: not shown
VL: B1 VL with H33F, S49D
notes: IgG4 backbone
B29: 16H7 light chain variant H33G (antibody, IgG4, V domains shown)
VH: not shown
VL: B1 VL with H33G, S49D
notes: IgG4 backbone
B30: 16H7 light chain variant H33I (antibody, IgG4, V domains shown)
VH: not shown
VL: B1 VL with H33I, S49D
notes: IgG4 backbone
B31: 16H7 light chain variant H33L (antibody, IgG4, V domains shown)
VH: not shown
VL: B1 VL with H33L, S49D
notes: IgG4 backbone

Tests used:
human beta-Klotho (KLB) = biological target: T1, human beta-Klotho (KLB) (human, UniProt Q86Z14 53-997); experiment: BLI off-rate screening (Octet), crude supernatant;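 note: supernatants tested at 25 µg/mL, dissociation from biosensors recorded in D-PBS with 0.1% BSA over 1800 s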
T1 construct: Bought protein; also called human KLB; β-Klotho
T1 sequence (looked up): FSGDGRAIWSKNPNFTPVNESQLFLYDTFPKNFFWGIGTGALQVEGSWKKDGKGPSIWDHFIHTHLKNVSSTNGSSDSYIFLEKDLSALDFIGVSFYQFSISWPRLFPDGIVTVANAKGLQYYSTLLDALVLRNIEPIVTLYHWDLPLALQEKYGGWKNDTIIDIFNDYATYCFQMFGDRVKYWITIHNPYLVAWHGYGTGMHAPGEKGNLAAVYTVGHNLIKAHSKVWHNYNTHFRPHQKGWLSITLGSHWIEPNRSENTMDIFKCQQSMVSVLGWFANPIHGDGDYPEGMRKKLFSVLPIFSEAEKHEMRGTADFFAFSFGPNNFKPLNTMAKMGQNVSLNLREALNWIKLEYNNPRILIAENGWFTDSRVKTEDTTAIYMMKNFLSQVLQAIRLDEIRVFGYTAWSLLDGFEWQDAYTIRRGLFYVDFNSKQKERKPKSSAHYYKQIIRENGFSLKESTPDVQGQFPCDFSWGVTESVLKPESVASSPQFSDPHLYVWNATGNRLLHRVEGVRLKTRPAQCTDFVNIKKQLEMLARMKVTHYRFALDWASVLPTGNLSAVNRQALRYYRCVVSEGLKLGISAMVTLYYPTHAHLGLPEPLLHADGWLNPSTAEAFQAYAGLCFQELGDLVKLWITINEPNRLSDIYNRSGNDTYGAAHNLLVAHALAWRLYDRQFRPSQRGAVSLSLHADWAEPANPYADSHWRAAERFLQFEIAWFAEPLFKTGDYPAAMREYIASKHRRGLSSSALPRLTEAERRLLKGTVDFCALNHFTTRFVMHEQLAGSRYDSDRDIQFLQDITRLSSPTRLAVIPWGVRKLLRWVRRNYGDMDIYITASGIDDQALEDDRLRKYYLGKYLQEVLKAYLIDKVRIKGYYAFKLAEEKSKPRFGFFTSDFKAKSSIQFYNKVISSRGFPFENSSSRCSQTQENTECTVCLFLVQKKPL

[1] = biological target: cell surface receptor composed of FGFR1c and co-receptor beta-Klotho (KLB) (human, UniProt P11362 22-822; Q86Z14 1-1044); experiment: cell-based or functional assay; for Mean E max, Luciferase reporter gene assay: reference of the scale not given here
Chain of cell surface receptor composed of FGFR1c and co-receptor beta-Klotho (KLB) (P11362 22-822, chain 1 of 2): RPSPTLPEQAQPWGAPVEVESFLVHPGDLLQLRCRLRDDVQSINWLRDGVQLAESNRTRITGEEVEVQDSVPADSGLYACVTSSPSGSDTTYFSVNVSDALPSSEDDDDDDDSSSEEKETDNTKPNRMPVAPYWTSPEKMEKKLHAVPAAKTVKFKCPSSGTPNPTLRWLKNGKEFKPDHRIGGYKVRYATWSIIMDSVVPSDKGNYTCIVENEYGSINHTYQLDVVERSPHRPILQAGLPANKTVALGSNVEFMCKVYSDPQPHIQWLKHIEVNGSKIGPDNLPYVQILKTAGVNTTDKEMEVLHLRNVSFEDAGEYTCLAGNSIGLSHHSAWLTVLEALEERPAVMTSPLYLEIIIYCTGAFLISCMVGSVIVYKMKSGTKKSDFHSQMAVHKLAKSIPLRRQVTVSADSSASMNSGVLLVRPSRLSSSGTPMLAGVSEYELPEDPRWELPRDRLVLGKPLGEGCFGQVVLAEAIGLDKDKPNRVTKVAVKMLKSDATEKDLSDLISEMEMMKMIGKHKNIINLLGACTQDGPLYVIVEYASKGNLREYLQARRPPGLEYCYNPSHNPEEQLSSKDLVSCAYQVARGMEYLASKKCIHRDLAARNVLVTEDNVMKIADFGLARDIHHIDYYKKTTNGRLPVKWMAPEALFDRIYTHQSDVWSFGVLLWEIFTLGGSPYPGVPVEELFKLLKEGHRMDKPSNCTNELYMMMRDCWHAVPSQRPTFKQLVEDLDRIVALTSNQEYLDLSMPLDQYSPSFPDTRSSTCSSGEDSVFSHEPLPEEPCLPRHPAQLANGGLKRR
Chain of cell surface receptor composed of FGFR1c and co-receptor beta-Klotho (KLB) (Q86Z14 whole entry, chain 2 of 2): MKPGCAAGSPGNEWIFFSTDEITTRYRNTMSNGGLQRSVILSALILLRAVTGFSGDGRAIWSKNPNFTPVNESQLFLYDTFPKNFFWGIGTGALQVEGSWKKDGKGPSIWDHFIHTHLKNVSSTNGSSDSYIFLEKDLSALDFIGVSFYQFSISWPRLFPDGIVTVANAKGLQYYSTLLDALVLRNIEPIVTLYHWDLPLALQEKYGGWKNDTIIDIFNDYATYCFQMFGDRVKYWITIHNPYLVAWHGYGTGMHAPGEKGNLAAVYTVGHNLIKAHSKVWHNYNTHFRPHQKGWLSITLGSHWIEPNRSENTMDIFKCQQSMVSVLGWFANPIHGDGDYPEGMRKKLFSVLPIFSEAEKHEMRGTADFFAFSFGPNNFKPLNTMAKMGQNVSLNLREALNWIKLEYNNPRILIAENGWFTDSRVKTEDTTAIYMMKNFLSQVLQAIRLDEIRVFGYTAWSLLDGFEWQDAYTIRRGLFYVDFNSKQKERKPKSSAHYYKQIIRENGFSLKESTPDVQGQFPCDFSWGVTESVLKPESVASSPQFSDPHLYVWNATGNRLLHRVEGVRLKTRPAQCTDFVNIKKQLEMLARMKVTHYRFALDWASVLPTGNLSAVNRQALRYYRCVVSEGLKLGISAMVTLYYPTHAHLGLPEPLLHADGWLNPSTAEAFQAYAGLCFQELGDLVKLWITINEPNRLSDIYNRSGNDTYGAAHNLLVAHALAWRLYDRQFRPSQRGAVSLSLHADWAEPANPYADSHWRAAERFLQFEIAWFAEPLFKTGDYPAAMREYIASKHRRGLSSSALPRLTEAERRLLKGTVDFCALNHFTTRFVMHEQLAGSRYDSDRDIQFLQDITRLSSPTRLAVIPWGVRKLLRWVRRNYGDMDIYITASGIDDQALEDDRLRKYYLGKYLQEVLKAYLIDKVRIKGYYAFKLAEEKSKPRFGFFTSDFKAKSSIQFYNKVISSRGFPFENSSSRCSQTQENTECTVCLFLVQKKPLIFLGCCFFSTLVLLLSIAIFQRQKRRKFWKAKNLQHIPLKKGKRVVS

Row | Binder | koff (human beta-Klotho (KLB)) [s⁻¹] | Mean E max, Luciferase reporter gene assay [1] [%] | Mean EC50, Luciferase reporter gene assay [1] [nM]
1 | B1 | 9.9e-05 | 98 | 0.098
2 | B2 | 0.00032 | 101 | 0.126
3 | B3 | 7.6e-05 | 105 | 0.211
4 | B4 | 3.9e-05 | 109 | 0.153
5 | B5 | 0.00016 | 91 | 0.123
6 | B6 | 0.0001 | 113 | 0.124
7 | B7 | 1.7e-05 | 107 | 0.136
8 | B8 | 0.00019 | 94 | 0.126
9 | B9 | 8.2e-05 | 109 | 0.114
10 | B10 | 0.00013 | 106 | 0.095
11 | B11 | 0.00013 | 110 | 0.125
12 | B12 | 7.9e-05 | 107 | 0.171
13 | B13 | 0.00013 | 110 | 0.122
14 | B14 | 4.1e-06 | 100 | 0.118
15 | B15 | 3.9e-05 | 104 | 0.12
16 | B16 | 2.2e-05 | 105 | 0.106

Row | Binder | koff (human beta-Klotho (KLB)) [s⁻¹] | Mean E max, Luciferase reporter gene assay [1] [%] | Mean EC50, Luciferase reporter gene assay [1] [nM]
17 | B17 | 0.00017 | 108 | 0.145
18 | B18 | 0.00016 | 113 | 0.157
19 | B19 | 0.0002 | 12 | –
20 | B20 | 8.1e-06 | 33 | 29.7
21 | B21 | 0.00016 | 4 | –
22 | B22 | 1.4e-05 | 8 | –
23 | B23 | 0.00013 | 4 | –
24 | B24 | 0.00013 | 96 | 0.121
25 | B25 | 6.8e-05 | 108 | 0.123
26 | B26 | 6.8e-05 | 99 | 0.166
27 | B27 | 3.6e-05 | 100 | 0.121
28 | B28 | 0.0001 | 113 | 0.122
29 | B29 | 9.6e-05 | 102 | 0.12
30 | B30 | 9.7e-05 | 104 | 0.121
31 | B31 | 5.5e-05 | 114 | 0.115
